Results published in patent US8377701B2, “Specific ligands to sortilin” (H. Lundbeck A/S, priority 2008, dated 2013).
Where no end group is shown, it is not given here.

T1: sSortilin (Homo sapiens, UniProt Q99523)
T1 construct: Soluble Sortilin (sSortilin); His6 (C); made in house; host or cells: CHO-K1
T1 sequence (Q99523 78-755 limits assumed): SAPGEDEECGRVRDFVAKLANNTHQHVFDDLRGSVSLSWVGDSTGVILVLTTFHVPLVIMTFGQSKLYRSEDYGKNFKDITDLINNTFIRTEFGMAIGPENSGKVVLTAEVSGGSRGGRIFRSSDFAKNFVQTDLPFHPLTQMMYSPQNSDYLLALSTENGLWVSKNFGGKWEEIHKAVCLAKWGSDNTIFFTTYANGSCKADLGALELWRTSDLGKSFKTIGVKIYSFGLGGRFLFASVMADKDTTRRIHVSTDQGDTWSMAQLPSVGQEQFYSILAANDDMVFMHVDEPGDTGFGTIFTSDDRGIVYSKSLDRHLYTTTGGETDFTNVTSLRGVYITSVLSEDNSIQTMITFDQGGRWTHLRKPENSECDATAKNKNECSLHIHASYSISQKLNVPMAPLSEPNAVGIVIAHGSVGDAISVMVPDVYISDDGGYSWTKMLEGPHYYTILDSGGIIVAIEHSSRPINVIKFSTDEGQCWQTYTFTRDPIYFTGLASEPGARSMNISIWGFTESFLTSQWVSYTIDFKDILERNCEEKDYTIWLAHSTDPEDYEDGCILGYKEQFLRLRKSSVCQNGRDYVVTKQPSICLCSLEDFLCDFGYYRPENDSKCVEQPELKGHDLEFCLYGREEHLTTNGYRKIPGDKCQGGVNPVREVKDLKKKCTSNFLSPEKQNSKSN

T2: S316E mutant sSortilin (Homo sapiens, UniProt Q99523, S316E)
T2 construct: His6 (C); made in house; host or cells: CHO cells
T2 sequence (Q99523 78-755 S316E): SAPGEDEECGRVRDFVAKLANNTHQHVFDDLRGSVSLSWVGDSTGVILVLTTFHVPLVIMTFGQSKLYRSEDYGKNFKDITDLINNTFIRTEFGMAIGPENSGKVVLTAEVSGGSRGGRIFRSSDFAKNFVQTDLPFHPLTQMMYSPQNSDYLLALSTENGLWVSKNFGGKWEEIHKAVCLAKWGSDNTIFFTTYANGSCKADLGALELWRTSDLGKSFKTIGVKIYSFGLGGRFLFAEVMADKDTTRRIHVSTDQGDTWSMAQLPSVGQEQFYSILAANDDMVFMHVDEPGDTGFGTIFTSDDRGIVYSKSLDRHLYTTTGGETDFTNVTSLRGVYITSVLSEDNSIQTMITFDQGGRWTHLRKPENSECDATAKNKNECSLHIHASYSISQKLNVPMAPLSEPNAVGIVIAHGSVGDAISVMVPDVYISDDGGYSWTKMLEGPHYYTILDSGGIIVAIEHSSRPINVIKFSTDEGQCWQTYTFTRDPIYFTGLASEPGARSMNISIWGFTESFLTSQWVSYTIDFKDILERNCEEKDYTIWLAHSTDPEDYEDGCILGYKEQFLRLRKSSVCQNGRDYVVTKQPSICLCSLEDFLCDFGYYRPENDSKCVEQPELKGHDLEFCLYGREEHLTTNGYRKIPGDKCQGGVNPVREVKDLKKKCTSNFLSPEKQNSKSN


Key:
[1] = biological target: T1, sSortilin; test: Surface plasmon resonance: ligand binding to immobilized sSortilin in absence or presence of Neurotensin derived peptides; conditions: for inhibition of binding of Sort-pro (GST-Sort-pro) to sSortilin: FIG. 3A+B
Procedure: (§1) Surface plasmon resonance (SPR) measurements were performed on a BIAcore 2000 instrument (Biacore Sweden) equipped with CM5 sensor chips maintained at 20° C. A continuous flow of HBS buffer (10 mM HEPES pH 7.4, 3.4 mM EDTA, 150 mM NaCl, 0.005% surfactant P20) passing over the sensor surface was maintained at 5 μl/min. […] A sortilin solution (320 μl, 5 μg/ml in 10 mM sodium acetate pH 4.0) was then injected over flow cells 1 and 2 at a flow rate of 15 μl/min. Remaining binding sites in all three flow cells were blocked by injection (5 μl/min) of 70 μl of 1 M ethanolamine pH 8.5. […] Screening of the samples was performed by injecting aliquots of 50 μl, at concentrations of 0.1-8 μM, through all flow cells with a flow rate of 5 μl/min. Unless otherwise stated, the samples were dissolved in 10 mM HEPES pH 7.4, 150 mM NaCl, 1.5 mM CaCl2, 1 mM EGTA, 0.005% surfactant P20. Sample buffer was also used as running buffer. The BIAcore response is expressed in relative response units (RU), i.e. the difference in response between the immobilized protein flow cell and the corresponding control flow cell (activated and blocked but without protein). Regeneration of the sensor chip after each cycle of analysis was performed by injecting 20 μl of 10 mM glycine/HCl pH 4.0, 500 mM NaCl, 20 mM EDTA and 0.005% surfactant P20. For calciumfree conditions, HBS containing 20 mM EDTA was used as sample as well as running buffer.

[2] = biological target: T2, S316E mutant sSortilin; test: Surface plasmon resonance: ligand binding to purified sSortilin S316E mutant; conditions: compared with wtSortilin
Procedure: as §1

[3] = biological target: T1, sSortilin; test: Surface plasmon resonance affinity of NGFpro and icosapeptides for immobilized sSortilin; format: binding; conditions: BIAcore 3000, 20° C., read-out: dissociation constant (Kd)
Procedure: All measurements were performed on a BIAcore 3000 instrument (Biacore Sweden) maintained at 20° C. A continuous flow of buffer F (10 mM HEPES pH=7.4, 150 mM (NH4)2SO4, 1.5 mM CaCl2, 1.5 mM EGTA and 0.005% Tween-20) was passed over the CM5 chip sensor surface at 5 μl/min. The affinity of NGFpro and the peptides for immobilized sSortilin were determined. The dissociation constant (Kd) for NGFpro was ˜10 nM and for peptide-4 (SEQ ID NO:51) ˜5 μM. The ability of the peptides to compete with NGFpro for binding to sSortilin was tested as well.

Row | Molecule | inhibition of binding of Sort-pro (GST-Sort-pro) to sSortilin [1] | binding to S316E mutant [2] | other results
1 | Arg8-Arg-Pro-Tyr-Ile-Leu13-NH2 [reference compound] | fails to inhibit |  | 
2 | BDNF: Mature BDNF, SEQ ID NO. 7 residues 128 to 246, purchased from R&D Systems |  | affinities similar to that of wtSortilin | 
3 | ITVDPRLFKKRRLRSPRVLF-NH2 [peptide-4] |  |  | Kd [3]: ~5 µM
4 | Sort-pro: Sortilin's own propeptide, residues 34-77 of SEQ ID NO:1, fused to GST (QDRLDAPPPPAAPLPRWSGPIGVSWGLRAAAAGGAFPRGGRWRR; also: fused to GST) |  | no binding | 
5 | Tyr-Ile-Leu [YIL] | full inhibition |  | inhibition of binding of the prodomain of NGF to sSortilin ([1]; FIG. 3C, not as efficiently as full length NT): hampers binding; inhibition of binding of RAP to sSortilin ([1]; FIG. 3D, not as efficiently as full length NT): hampers binding; affinity for Sortilin ([1]; summary statement): high affinity
6 | NGFpro: propeptide of Nerve Growth Factor, residues 19-121 of SEQ ID NO:6 (protein, left off: a dimerising Fc or GST) EPHSESNVPAGHTIPQVHWTKLQHSLDTALRRARSAPAAAIAARVAGQTRNITVDPRLFKKRRLRSPRVLFSTQPPREAADTQDLDFEVGGAAPFNRTHRSKR |  | affinities similar to that of wtSortilin | 
